From paper PMC11303327, “MnoSR removal in Mycobacterium smegmatis triggers broad transcriptional response to 1,3-propanediol and glucose as sole carbon sources”

T1: MnoR (Mycobacterium smegmatis, UniProt A0R5L8 1-216)
T1 sequence: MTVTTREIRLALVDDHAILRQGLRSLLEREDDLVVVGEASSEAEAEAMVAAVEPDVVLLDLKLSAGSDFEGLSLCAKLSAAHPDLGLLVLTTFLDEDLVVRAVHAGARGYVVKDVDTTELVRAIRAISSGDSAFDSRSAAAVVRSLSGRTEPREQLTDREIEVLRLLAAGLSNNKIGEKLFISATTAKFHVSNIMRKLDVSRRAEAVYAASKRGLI

B1: mno perfect motif (dsDNA)
DNA 1: GCCTGAGCGATCTGGGGCTCTGAGCACCCTCGCCCACCGGTGAGCCGCCGGTGGGCGGCCACCCTGCCCGACCGGACAGTTCTGCCG
DNA 2: CGGCAGAACTGTCCGGTCGGGCAGGGTGGCCGCCCACCGGCGGCTCACCGGTGGGCGAGGGTGCTCAGAGCCCCAGATCGCTCAGGC
B2: mno 3MM (dsDNA)
DNA 1: GCTGGAGGAGGCGTTCACCGCTGACTGGCTCGCCCAGCACTCCTAAGCCGGTGGGCGCCGTCACCCGCGGCACCACCGGTTACAACC
DNA 2: GGTTGTAACCGGTGGTGCCGCGGGTGACGGCGCCCACCGGCTTAGGAGTGCTGGGCGAGCCAGTCAGCGGTGAACGCCTCCTCCAGC
B3: mno 2MM (dsDNA)
DNA 1: ACCTGGCGGATCTGAGCCCGGCAGGCGATCCGCACACCGGTACCGTGCTGGTGGGCGCGAGCCCCGAGTTGCTGGTCGCCCGCGACG
DNA 2: CGTCGCGGGCGACCAGCAACTCGGGGCTCGCGCCCACCAAGCACGGTACCGGTGTGCGGATCGCCTGCCGGGCTCAGATCCGCCAGGT
B4: mno 4MM (dsDNA)
DNA 1: CACGCTGATCACGTCCGACGTCGACGAGCGCGACCAGCCGTTCATCACCGGTGAGCGCACCAAGGAAGGCTTCTTCCGCGTGAAGAA
DNA 2: TTCTTCACGCGGAAGAAGCCTTCCTTGGTGCGCTCACCGGTGATGAACGGCTGGTCGCGCTCGTCGACGTCGGACGTGATCAGCGTG

What was measured:
MnoR [1] = target: T1, MnoR; experiment: MST; PBS-T; EMSA: 50 mM Tris-HCl (pH not stated), 100 mM NaCl, 10 mM MgCl2, 100 ug/ml BSA, 5% glycerol, 5 nM DNA, 30 min 25 °C, 5% native gel at 4 °C; MST: PBS-T, room temperature, DNA 60 nM (perfect), 15 nM (2MM), 120 nM (4MM); conditions: protein: recombinant; tags: N-terminal 6xHis; chain copies: 2; label: 5'-Cy5 on strand 1; blunt
MnoR [2] = target: T1, MnoR; experiment: EMSA; 100x polyA instead of salmon sperm DNA; EMSA: 50 mM Tris-HCl (pH not stated), 100 mM NaCl, 10 mM MgCl2, 100 ug/ml BSA, 5% glycerol, 5 nM DNA, 30 min 25 °C, 5% native gel at 4 °C; MST: PBS-T, room temperature, DNA 60 nM (perfect), 15 nM (2MM), 120 nM (4MM); conditions: protein: recombinant, tags: N-terminal 6xHis, chain copies: 2, label: 5'-Cy5 on strand 1

Row | Binder | binding result (MnoR [2]; blunt) | further results
1 | B1 | – | Kd (MnoR [1]): 2.37 µM
2 | B2 | binds | –
3 | B3 | – | binding result (MnoR [2]): binds
4 | B4 | binds | –
